The target in test [1] is T1, FcγRIIb, extracellular domain with C-terminal His tag (human, UniProt P31994 43-217).
T1 construct: extracellular domain; soluble receptor used as Biacore analyte; also called 2b; FcgRIIb
T1 sequence (looked up): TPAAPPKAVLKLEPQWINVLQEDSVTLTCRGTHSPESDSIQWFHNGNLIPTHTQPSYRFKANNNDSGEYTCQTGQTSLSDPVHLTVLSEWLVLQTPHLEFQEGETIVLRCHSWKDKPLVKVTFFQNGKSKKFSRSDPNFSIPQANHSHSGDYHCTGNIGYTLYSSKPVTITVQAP
Kind of test: Biacore SPR; binding relative to GpH7-A5/GpH7-B3/GpL16-k0 (=100). (In SPR one partner is held on a chip, and binding of the other changes the refractive index at the surface.)

Test [2] concerns the target T2, FcγRIIa R (FcγRIIa, allotype R, Arg at position 131), extracellular domain with C-terminal His tag (human, UniProt P12318 34-217).
T2 construct: extracellular domain; soluble receptor used as Biacore analyte; also called 2aR; FcgRIIa R
T2 sequence (looked up): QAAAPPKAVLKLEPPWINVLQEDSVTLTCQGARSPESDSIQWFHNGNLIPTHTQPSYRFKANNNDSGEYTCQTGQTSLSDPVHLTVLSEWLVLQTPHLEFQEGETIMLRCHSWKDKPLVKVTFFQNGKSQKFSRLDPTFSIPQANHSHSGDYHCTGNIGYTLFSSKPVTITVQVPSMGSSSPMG
The test is described as above.

Test [3] concerns the target T2, FcγRIIa R (FcγRIIa, allotype R, Arg at …). Kind of test: Biacore SPR; He/Con_2aR divided by He/Con_2b (FcγRIIb). As to the method:
The heterodimerized antibodies He Abs in which one of the H chains was introduced with an alteration were assayed for their binding activities to each activating FcγR and inhibitory FcγR according to the method described in Example 4. […] The activating FcγRs in FIGS. 26, 27, 28, and 29 are FcγRIa, FcγRIIa (R), FcγRIIa (H), and FcγRIIIa, respectively.
Analysis of interaction between objective antibody and the FcγR was carried out using Biacore T100 (GE Healthcare). HBS-EP+ (GE Healthcare) was used as the running buffer, and the measurement temperature was set to 25° C. Chips produced by immobilizing the antigen peptide by the amine coupling method to a Series S Sencor Chip CM5 (GE Healthcare), or alternatively, chips produced by allowing preliminarily biotinylated antigen peptides to interact with and immobilize onto a Series S Sensor Chip SA (certified) (GE Healthcare) were used. Antibodies of interest were captured onto an antigen peptide-immobilized chip, and allowed to interact to each FcγR diluted with running buffer. To regenerate and repeatedly use the chip, the antibodies captured on the chip were washed off by reacting 10 mM glycine-HCl, pH 1.5.

Results on 15 molecules are retold here after patent publication US20180155451A1 (published 2018).

B1: heterodimerized antibody GpH7-A5/GpH7-B3 variant H268_09D/GpL16-k0 (antibody, human IgG1, kappa)
heavy 1: not shown
heavy 2: not shown
light: DIVMTQSPLSLPVTPGEPASISCQASESLVHSNRNTYLHWYLQKPGQSPQLLIYKVSNRFSGVPDRFSGSGSGTDFTLKISRVEAEDVGVYYCSQNTHVPPTFGQGTKVEIERTVAAPSVFIFPPSDEQLKSGTASVVCLLNNFYPREAKVQWKVDNALQSGNSQESVTEQDSKDSTYSLSSTLTLSKADYEKHKVYACEVTHQGLSSPVTKSFNRGEC
notes: He Ab: anti-glypican-3 IgG1, alteration in one H chain only; also called He Ab
As to B1, in test [1], the “He/Con_2b (IIb binding)” value was 239 % of control. Besides, the “He/Con_2aR (IIaR binding)” value in test [2] is 149 % of control. The “IIaR/IIb (He_2aR/2b)” value in test [3] amounted to 0.62.

B2: heterodimerized antibody GpH7-A5/GpH7-B3 variant N325_07I/GpL16-k0 (antibody, human IgG1, kappa)
heavy 1: not shown
heavy 2: not shown
light: B1 light
notes: as for B1
Turning to B2, in test [1], the “He/Con_2b (IIb binding)” value was 171 % of control. Besides, the “He/Con_2aR (IIaR binding)” value in test [2] is 133 % of control. Moreover, the “IIaR/IIb (He_2aR/2b)” value in test [3] turned out to be 0.78.

B3: heterodimerized antibody GpH7-A5/GpH7-B3 variant N325_08L/GpL16-k0 (antibody, human IgG1, kappa)
heavy 1: not shown
heavy 2: not shown
light: B1 light
notes: as for B1
B3: in test [1], the “He/Con_2b (IIb binding)” value is 197 % of control. Further, the “He/Con_2aR (IIaR binding)” value in test [2] is 144 % of control. The “IIaR/IIb (He_2aR/2b)” value in test [3] turned out to be 0.73.

B4: heterodimerized antibody GpH7-A5/GpH7-B3 variant L328_07I/GpL16-k0 (antibody, human IgG1, kappa)
heavy 1: not shown
heavy 2: not shown
light: B1 light
notes: as for B1
Turning to B4, the “He/Con_2b (IIb binding)” value in test [1] is 160 % of control. Moreover, the “He/Con_2aR (IIaR binding)” value in test [2] is 124 % of control. Moreover, in test [3], the “IIaR/IIb (He_2aR/2b)” value was 0.78.

B5: heterodimerized antibody GpH7-A5/GpH7-B3 variant A327_10E/GpL16-k0 (antibody, human IgG1, kappa)
heavy 1: not shown
heavy 2: not shown
light: B1 light
notes: as for B1
For B5, the “He/Con_2b (IIb binding)” value in test [1] is 140 % of control. Besides, in test [2], the “He/Con_2aR (IIaR binding)” value is 110 % of control. The “IIaR/IIb (He_2aR/2b)” value in test [3] came out at 0.78.

B6: heterodimerized antibody GpH7-A5/GpH7-B3 variant L328_04F/GpL16-k0 (antibody, human IgG1, kappa)
heavy 1: not shown
heavy 2: not shown
light: B1 light
notes: as for B1
On to B6, for which the “He/Con_2b (IIb binding)” value in test [1] is 219 % of control. For the same molecule, in test [2], the “He/Con_2aR (IIaR binding)” value was 138 % of control. For the same molecule, the “IIaR/IIb (He_2aR/2b)” value in test [3] worked out at 0.63.

B7: heterodimerized antibody GpH7-A5/GpH7-B3 variant K326_07I/GpL16-k0 (antibody, human IgG1, kappa)
heavy 1: not shown
heavy 2: not shown
light: B1 light
notes: as for B1
On to B7, for which, in test [1], the “He/Con_2b (IIb binding)” value was 199 % of control. The “He/Con_2aR (IIaR binding)” value in test [2] is 147 % of control. Moreover, in test [3], the “IIaR/IIb (He_2aR/2b)” value was 0.74.

B8: heterodimerized antibody GpH7-A5/GpH7-B3 variant A327_18N/GpL16-k0 (antibody, human IgG1, kappa)
heavy 1: not shown
heavy 2: not shown
light: B1 light
notes: as for B1
Consider B8, for which, in test [1], the “He/Con_2b (IIb binding)” value was 113 % of control. Besides, the “He/Con_2aR (IIaR binding)” value in test [2] is 88.9 % of control. In addition, the “IIaR/IIb (He_2aR/2b)” value in test [3] was determined as 0.79.

B9: heterodimerized antibody GpH7-A5/GpH7-B3 variant H268_10E/GpL16-k0 (antibody, human IgG1, kappa)
heavy 1: not shown
heavy 2: not shown
light: B1 light
notes: as for B1
As to B9, the “He/Con_2b (IIb binding)” value in test [1] was 230 % of control. Besides, the “He/Con_2aR (IIaR binding)” value in test [2] is 148 % of control. The “IIaR/IIb (He_2aR/2b)” value in test [3] came to 0.64.

B10: heterodimerized antibody GpH7-A5/GpH7-B3 variant G236_09D/GpL16-k0 (antibody, human IgG1, kappa)
heavy 1: not shown
heavy 2: not shown
light: B1 light
notes: as for B1
In the case of B10, the “He/Con_2b (IIb binding)” value in test [1] is 167 % of control. In addition, in test [2], the “He/Con_2aR (IIaR binding)” value was 106 % of control. Moreover, in test [3], the “IIaR/IIb (He_2aR/2b)” value was 0.64.

B11: heterodimerized antibody GpH7-A5/GpH7-B3 variant P238_15Y/GpL16-k0 (antibody, human IgG1, kappa)
heavy 1: not shown
heavy 2: not shown
light: B1 light
notes: as for B1
Take B11: the “He/Con_2b (IIb binding)” value in test [1] was 218 % of control. In addition, the “He/Con_2aR (IIaR binding)” value in test [2] was 156 % of control. In addition, in test [3], the “IIaR/IIb (He_2aR/2b)” value worked out at 0.72.

B12: heterodimerized antibody GpH7-A5/GpH7-B3 variant G237_09D/GpL16-k0 (antibody, human IgG1, kappa)
heavy 1: not shown
heavy 2: not shown
light: B1 light
notes: as for B1
Turning to B12, the “He/Con_2b (IIb binding)” value in test [1] was 223 % of control. Also, the “He/Con_2aR (IIaR binding)” value in test [2] is 156 % of control. Also, in test [3], the “IIaR/IIb (He_2aR/2b)” value was determined as 0.7.

B13: heterodimerized antibody GpH7-A5/GpH7-B3 variant G237_20W/GpL16-k0 (antibody, human IgG1, kappa)
heavy 1: not shown
heavy 2: not shown
light: B1 light
notes: as for B1
For the molecule B13, the “He/Con_2b (IIb binding)” value in test [1] is 193 % of control. Moreover, the “He/Con_2aR (IIaR binding)” value in test [2] is 138 % of control. Further, the “IIaR/IIb (He_2aR/2b)” value in test [3] is 0.71.

B14: heterodimerized antibody GpH7-A5/GpH7-B3 variant N325_06M/GpL16-k0 (antibody, human IgG1, kappa)
heavy 1: not shown
heavy 2: not shown
light: B1 light
notes: as for B1
Take B14: the “He/Con_2b (IIb binding)” value in test [1] was 217 % of control. The “He/Con_2aR (IIaR binding)” value in test [2] was 152 % of control. For the same molecule, the “IIaR/IIb (He_2aR/2b)” value in test [3] was 0.7.

B15: heterodimerized antibody GpH7-A5/GpH7-B3 variant P238_10E/GpL16-k0 (antibody, human IgG1, kappa)
heavy 1: not shown
heavy 2: not shown
light: B1 light
notes: as for B1
B15: the “He/Con_2b (IIb binding)” value in test [1] was 232 % of control. The “He/Con_2aR (IIaR binding)” value in test [2] was 151 % of control. Further, the “IIaR/IIb (He_2aR/2b)” value in test [3] amounted to 0.65.
